Experimental data taken from patent publication US20240293570A1 (priority 2021, published 2024).
Where two headings read alike, the source gives them in different places. *1 amine or outer side, *2 acyl side, *3 side chain or, on linkers, in order; H or OH if unused. Where a SMILES comes first, the peptide text is derived from it. [ ]: non-standard residue; d: D form. The star is where a group is joined. Exatecan = CC[C@@]1(O)C(=O)OCc2c1cc1n(c2=O)Cc2c-1nc1cc(F)c(C)c3c1c2[C@@H](N*)CC3; X2 = CO[C@@H]([C@H]1CCCN1[*:1])[C@@H](C)C(=O)[*:2]; Propanoyl(3-maleimido) = O=C1C=CC(=O)N1CCC(=O)*; Dil = CC[C@H](C)[C@H](NC)[C@@H](CC(=O)O)OC; X1 = O=C(CN1CCOCCN([*:1])CCOCC1)[*:2]; PABC = O=C(OCc1ccc(N[*:1])cc1)[*:2]; NHCH2OCH2CO = O=C(COCN[*:1])[*:2]; X3 = C[C@@H](N*)[C@@H](O)c1ccccc1; NMeV = CN[C@H](C(=O)O)C(C)C

Experiments:
[1] = Plasma stability of ADCs, generated payload by LC-MS/MS, monkey plasma; assay type: in vitro ADME, monkeys; conditions: 37° C., 100 μg/mL, up to 21 d, FIG. 7-9
Protocol: (§1) In order to further evaluate the characteristics of ADCs, the plasma stability of ADCs was tested. The plasma stability was tested by the following steps:
(§2) A test sample stock solution was diluted with ultra-pure water into a working solution having a concentration of 2.5 mg/mL. The working solution was prepared as needed and used at room temperature.
(§3) Follow the following steps to test plasma samples: • (1) 980 μL of plasma was collected from blank CD-1 mice, monkeys, and humans (experimental group N=2, control group N=1) and pre-incubated at 37° C. for 5 minutes; • (2) 20 μL of test compound working solution (or positive control drug (payload) working solution) was added, followed by vortex mixing (final concentration of the test compound was 100 μg/mL, and final concentration of the positive control drug was 1 μM). 50 μL of plasma sample was immediately added into 150 μL of ice precipitant, followed by vortex mixing as a 0 h sample; • (3) The remaining plasma samples were sealed and further incubated at 37° C., and 50 μL of each plasma sample was pipetted into 150 μL of ice precipitant according to preset time points in Table 3, followed by vortex mixing; […]
(§4) The samples were analyzed using liquid chromatography-tandem mass spectrometry (LC-MS/MS) to measure the quantity of a generated payload, where the quantities of two payloads were measured for dual toxin ADCs respectively.

[2] = Stability (placement) test of ADCs at 40° C. in dark for 14 days, DAR and polymer content; assay type: physicochemical
Protocol: (§5) Polymers (high molecular components) of the antibody-drug conjugates were tested using molecular exclusion high-performance liquid chromatography (SE-HPLC). A Biocore SEC chromatographic column (7.8×300 mm, […]) was used, and the mobile phase was 50 mM phosphate containing 300 mM sodium chloride (pH 6.8), with a flow rate of 0.5 mL/min. Samples of […] and 10 μl were injected. […] The polymer content of an antibody-drug conjugate was calculated using an area normalization method.
(§6) A drug-antibody conjugating ratio (also known as drug-antibody ratio, abbreviated as DAR) of the antibody-drug conjugate was tested using reversed-phase high-performance liquid chromatography-mass chromatography (RP-HPLC-MS). The ADC sample was diluted with 50 mmol/L Tris buffer (pH 8.0) to 1 mg/ml. A fresh dithiothreitol (DTT) stock solution was added to achieve a final DTT concentration of 50 mmol/L. Incubation was performed at 37° C. for 30 minutes. A PLRP-S chromatographic column (1000 Å pores, 2.1×50 mm, 5) μm) was used, and the column temperature was 70° C. The flow rate was 0.25 mL/min. […] of sample was injected; the mobile phase A was an aqueous solution of 0.1% formic acid (V/V) and 0.025% trifluoroacetic acid (V/V), and the mobile phase B was an acetonitrile solution of 0.1% formic acid (V/V) and 0.025% trifluoroacetic acid (V/V); the running time was 0-3 minutes, where 27% of mobile phase B ran for 3 minutes, and the mobile phase B ran from 27% to 49% within 3-25 minutes, from 49% to 95% within 25-26 minutes, at 95% within […], from 95% to 27% within 30-31.5 minutes, and at 27% for 31.5-45 minutes. […] Mass spectrometry drying gas was at a temperature of 350° C. and a flow rate of 7.0 L/min, the pressure of an atomizer was 40 psi, capillary voltage was positive 3000V and negative 3000V, and the mass range was 500-1600 m/z. The molecular weight of each mass spectrometry peak (ranging from 20000 to 70000) was calculated by deconvolution and compared with light and heavy chain molecular weights of un-conjugated antibodies to calculate a drug load at each peak, so as to determine the load of a corresponding ultraviolet peak. Area percentages of heavy and light chain ultraviolet peaks were calculated through integration, and a weighted average DAR of the antibody-drug conjugate was calculated by combining the area percentages with the drug load distribution of each peak.
Stability testing method: The stability of the obtained ADCs was tested for 14 days. The ADCs were placed at 40° C. in dark. Sampling points were days 0, 7, and 14. The polymer content and DAR value of samples at different sampling points were tested according to the method in Experimental Example 1.

[3] = Naked antibody content of antibody-drug conjugates by hydrophobic interaction chromatography (HIC); assay type: physicochemical; conditions: ADC with Her2 antibody
Protocol: The content of naked antibodies in the antibody-drug conjugate was tested using hydrophobic interaction chromatography (HIC). A Biocore HIC-Butyl chromatographic column (4.6×150 mm, 5 μm) was used. The mobile phase A was a 100 mM phosphate aqueous solution containing 2 M ammonium sulfate (pH 7.0), and the mobile phase B was a 100 mM phosphate aqueous solution (pH 7.0): isopropanol=80:20 (V/V). Samples of 50 μg and 10 μl were injected. The mobile phase A at the flow rate of 1 mL/min ran at 100% for 3 minutes. Within 3-25 minutes, the mobile phase B ran from […] to 100%, while the mobile phase B decreased to 0% at 25.1 and ran to 30 minutes. […] The naked antibody content of the antibody-drug conjugate was calculated using an area normalization method based on the retention time of a naked antibody peak located by the antibody of the antibody-drug conjugate.

[4] = Plasma stability of ADCs, generated payload by LC-MS/MS, mouse plasma; assay type: in vitro ADME, CD-1 mice; conditions: 37° C., 100 μg/mL, up to 21 d, FIG. 7-9
Protocol: as §1, §2, §3, §4

[5] = Plasma stability of ADCs, generated payload by LC-MS/MS, human plasma; assay type: in vitro ADME, humans; conditions: 37° C., 100 μg/mL, up to 21 d, FIG. 7-9
Protocol: as §1, §2, §3, §4

[6] = Polymer (high molecular component) content of antibody-drug conjugates by SE-HPLC; assay type: physicochemical; conditions: ADC with Her2 antibody
Protocol: as §5

[7] = assay type: physicochemical; conditions: ADC with Her2 antibody, RP-HPLC-MS
Protocol: as §6

In the case of `C=C1C[C@@H]2CC[C@@]34C[C@H]5OC6C(O[C@H]7CC[C@H](CC(=O)C[C@@H]8[C@@H](OC)[C@@H](C[C@H](O)CNC(=O)CNC(=O)[C@H](Cc9ccccc9)NC(=O)CNC(=O)CNC(=O)CCOCCOCCN(CCOCCOCCC(=O)NCC(=O)NCC(=O)N[C@@H](Cc9ccccc9)C(=O)NCC(=O)NCOCC(=O)N[C@H]9CCc%10c(C)c(F)cc%11nc%12c(c9c%10%11)Cn9c-%12cc%10c(c9=O)COC(=O)[C@]%10(O)CC)C(=O)CN9CCOCCOCCOCCOCCN(C(=O)CCOCCOCCOCCOCCC%10C(=O)C=CC%10=O)CCOCCOCCOCCOCC9)O[C@H]8C[C@H]8O[C@@H](CC[C@@H]1O2)C[C@@H](C)C8=C)O[C@@H]7[C@@H]6O3)[C@H]5O4` [Example 13], the “stability in the plasma of monkeys” value [1] was “significantly better”, the DAR ([2]; Day 0, 40° C. in dark) was 4.02 and the “Polymer content (%)” value ([2]; Day 0, 40° C. in dark) was 0.77%. The DAR ([2]; Day 7, 40° C. in dark) was 4.02, the “Polymer content (%)” value ([2]; Day 7, 40° C. in dark) was 0.78% and the DAR ([2]; Day 14, 40° C. in dark) was 4.04. The “Polymer content (%)” value ([2]; Day 14, 40° C. in dark) was 0.91%, the “Naked antibody content (%)” value [3] was 5.02% and the “stability in the plasma of mice” value [4] was “significantly better”. For the same compound, the “stability in the plasma of humans” value [5] was “significantly better”, the “Polymer content (%)” value [6] was 0.77% and the DAR [7] was 4.02.

For `C=C1C[C@@H]2CC[C@@]34C[C@H]5OC6C(O[C@H]7CC[C@H](CC(=O)C[C@@H]8[C@@H](OC)[C@@H](C[C@H](O)CNC(=O)CNC(=O)[C@H](Cc9ccccc9)NC(=O)CNC(=O)CNC(=O)CCOCCOCCN(CCOCCOCCC(=O)NCC(=O)NCC(=O)N[C@@H](Cc9ccccc9)C(=O)NCC(=O)NCOCC(=O)N[C@H]9CCc%10c(C)c(F)cc%11nc%12c(c9c%10%11)Cn9c-%12cc%10c(c9=O)COC(=O)[C@]%10(O)CC)C9CCC(NC(=O)CN%10CCOCCOCCOCCN(C(=O)CCCCCN%11C(=O)C=CC%11=O)CCOCCOCCOCC%10)CC9)O[C@H]8C[C@H]8O[C@@H](CC[C@@H]1O2)C[C@@H](C)C8=C)O[C@@H]7[C@@H]6O3)[C@H]5O4` (stereo partly drawn) [Example 19], the DAR ([2]; Day 0, 40° C. in dark) was 3.92, the “Polymer content (%)” value ([2]; Day 0, 40° C. in dark) was 1.53% and the DAR ([2]; Day 7, 40° C. in dark) was 3.91. For the same compound, the “Polymer content (%)” value ([2]; Day 7, 40° C. in dark) was 1.56%, the DAR ([2]; Day 14, 40° C. in dark) was 3.87 and the “Polymer content (%)” value ([2]; Day 14, 40° C. in dark) was 1.49%. The “Naked antibody content (%)” value [3] was 5.22%, the “Polymer content (%)” value [6] was 1.53% and the DAR [7] was 3.92.

With `CC[C@H](C)[C@@H]([C@@H](CC(=O)N1CCC[C@@H]1[C@H](OC)[C@@H](C)C(=O)N[C@H](C)[C@@H](O)c1ccccc1)OC)N(C)C(=O)[C@@H](NC(=O)[C@H](C(C)C)N(C)C(=O)OCc1ccc(NC(=O)CNC(=O)[C@H](Cc2ccccc2)NC(=O)CNC(=O)CN2CCOCCN(C(=O)CCN3C(=O)C=CC3=O)CCOCC2)cc1)C(C)C` [Example 86] ({Propanoyl(3-maleimido)}-[X1]GFG[PABC][NMeV]V[Dil][X2]-X3) the DAR ([2]; Day 0, 40° C. in dark) was 4.20, the “Polymer content (%)” value ([2]; Day 0, 40° C. in dark) was 0.97% and the DAR ([2]; Day 7, 40° C. in dark) was 4.23. For the same compound, the “Polymer content (%)” value ([2]; Day 7, 40° C. in dark) was 0.99%, the DAR ([2]; Day 14, 40° C. in dark) was 4.16 and the “Polymer content (%)” value ([2]; Day 14, 40° C. in dark) was 1.11%. For the same compound, the “Naked antibody content (%)” value [3] was 3.45%, the “Polymer content (%)” value [6] was 0.97% and the DAR [7] was 4.20.

In the case of `C=C1C[C@@H]2CC[C@@]34C[C@H]5OC6C(O[C@H]7CC[C@H](CC(=O)C[C@@H]8[C@@H](OC)[C@@H](C[C@H](O)CNC(=O)CNC(=O)[C@H](Cc9ccccc9)NC(=O)CNC(=O)CNC(=O)CN9CCOCCN(C(=O)CCN%10C(=O)C=CC%10=O)CCOCC9)O[C@H]8C[C@H]8O[C@@H](CC[C@@H]1O2)C[C@@H](C)C8=C)O[C@@H]7[C@@H]6O3)[C@H]5O4` [Example 21], the DAR ([2]; Day 0, 40° C. in dark) was 4.08, the “Polymer content (%)” value ([2]; Day 0, 40° C. in dark) was 0.87% and the DAR ([2]; Day 7, 40° C. in dark) was 4.06. The “Polymer content (%)” value ([2]; Day 7, 40° C. in dark) was 0.90%, the DAR ([2]; Day 14, 40° C. in dark) was 4.10 and the “Polymer content (%)” value ([2]; Day 14, 40° C. in dark) was 0.88%. The “Naked antibody content (%)” value [3] was 2.56%, the “Polymer content (%)” value [6] was 0.87% and the DAR [7] was 4.08.

In the case of `CCc1c2c(nc3ccc(O)cc13)-c1cc3c(c(=O)n1C2)COC(=O)[C@@]3(CC)OC(=O)N(C)CCN(C)C(=O)COCNC(=O)[C@H](CC(N)=O)NC(=O)[C@H](C)NC(=O)[C@H](C)NC(=O)CN1CCOCCN(C(=O)CCN2C(=O)C=CC2=O)CCOCC1` [Example 83], the DAR ([2]; Day 0, 40° C. in dark) was 3.96, the “Polymer content (%)” value ([2]; Day 0, 40° C. in dark) was 0.56% and the DAR ([2]; Day 7, 40° C. in dark) was 3.98. The “Polymer content (%)” value ([2]; Day 7, 40° C. in dark) was 0.59%, the DAR ([2]; Day 14, 40° C. in dark) was 3.96 and the “Polymer content (%)” value ([2]; Day 14, 40° C. in dark) was 0.58%. The “Naked antibody content (%)” value [3] was 2.23%, the “Polymer content (%)” value [6] was 0.56% and the DAR [7] was 3.96.

With `CC[C@@]1(O)C(=O)OCc2c1cc1n(c2=O)Cc2c-1nc1cc(F)c(C)c3c1c2[C@@H](NC(=O)COCNC(=O)CNC(=O)[C@H](Cc1ccccc1)NC(=O)CNC(=O)CNC(=O)CN1CCOCCN(C(=O)CCN2C(=O)C=CC2=O)CCOCC1)CC3` [Example 22] ({Propanoyl(3-maleimido)}-[X1]GGFG[NHCH2OCH2CO]-Exatecan) the “stability in the plasma of monkeys” value [1] was “significantly better”, the DAR ([2]; Day 0, 40° C. in dark) was 4.14 and the “Polymer content (%)” value ([2]; Day 0, 40° C. in dark) was 0.76%. The DAR ([2]; Day 7, 40° C. in dark) was 4.12, the “Polymer content (%)” value ([2]; Day 7, 40° C. in dark) was 0.81% and the DAR ([2]; Day 14, 40° C. in dark) was 4.15. The “Polymer content (%)” value ([2]; Day 14, 40° C. in dark) was 0.78%, the “Naked antibody content (%)” value [3] was 0.00% and the “stability in the plasma of mice” value [4] was “significantly better”. For the same compound, the “stability in the plasma of humans” value [5] was “significantly better”, the “Polymer content (%)” value [6] was 0.76% and the DAR [7] was 4.14.
